Here are results for three proteins from PMC9800333, “Determinants of receptor tyrosine phosphatase homophilic adhesion: Structural comparison of PTPRK and PTPRM extracellular domains” (The Journal of Biological Chemistry, 2022).

The data set deals with the molecule itself. Description: SEC-MALS; pH 8: 100 ul at 1 mg/ml on Superdex 200 Increase 10/300 GL in 100 mM Tris-HCl, pH 8, 250 mM NaCl; protein conjugate analysis for glycans; dimer to monomers. In general terms: In gel filtration, larger molecules generally elute earlier.

B1: full-length PTPRK extracellular domain (domain or fragment, human, UniProt Q15262-3 28-752, looked up)
chain: QGQFSAGGCTFDDGPGACDYHQDLYDDFEWVHVSAQEPHYLPPEMPQGSYMIVDSSDHDPGEKARLQLPTMKENDTHCIDFSYLLYSQKGLNPGTLNILVRVNKGPLANPIWNVTGFTGRDWLRAELAVSTFWPNEYQVIFEAEVSGGRSGYIAIDDIQVLSYPCDKSPHFLRLGDVEVNAGQNATFQCIATGRDAVHNKLWLQRRNGEDIPVAQTKNINHRRFAASFRLQEVTKTDQDLYRCVTQSERGSGVSNFAQLIVREPPRPIAPPQLLGVGPTYLLIQLNANSIIGDGPIILKEVEYRMTSGSWTETHAVNAPTYKLWHLDPDTEYEIRVLLTRPGEGGTGLPGPPLITRTKCAEPMRTPKTLKIAEIQARRIAVDWESLGYNITRCHTFNVTICYHYFRGHNESKADCLDMDPKAPQHVVNHLPPYTNVSLKMILTNPEGRKESEETIIQTDEDVPGPVPVKSLQGTSFENKIFLNWKEPLDPNGIITQYEISYSSIRSFDPAVPVAGPPQTVSNLWNSTHHVFMHLHPGTTYQFFIRASTVKGFGPATAINVTTNISAPTLPDYEGVDASLNETATTITVLLRPAQAKGAPISAYQIVVEELHPHRTKREAGAMECYQVPVTYQNAMSGGAPYYFAAELPPGNLPEPAPFTVGDNRTYQGFWNPPLAPRKGYNIYFQAMSSVEKETKTQCVRIATKAAATEEPEVIPDPAKQTDRVV
modifications: native N-linked glycans (no deglycosylation)
notes: human PTPRK, full extracellular domain (MAM, Ig, FN1-4), residues 28-752; numbers count on: UniProt Q15262-3; Cloned into pHLSec (AgeI/KpnI) in frame with the vector's N-terminal secretion signal; The C-terminal His6 tag was included in the SAXS models; also called PTPRK-ECD; PTPRK full ECD; not shown: Lys-His6, C-terminal, kept
For the protein B1, the stoichiometry N (as a rule, the number of molecules, sites or subunits per partner or assembly) was 2.

B2: PTPRK MAM-Ig-FN1 domains (domain or fragment, human, UniProt Q15262-3 28-385, looked up)
chain: QGQFSAGGCTFDDGPGACDYHQDLYDDFEWVHVSAQEPHYLPPEMPQGSYMIVDSSDHDPGEKARLQLPTMKENDTHCIDFSYLLYSQKGLNPGTLNILVRVNKGPLANPIWNVTGFTGRDWLRAELAVSTFWPNEYQVIFEAEVSGGRSGYIAIDDIQVLSYPCDKSPHFLRLGDVEVNAGQNATFQCIATGRDAVHNKLWLQRRNGEDIPVAQTKNINHRRFAASFRLQEVTKTDQDLYRCVTQSERGSGVSNFAQLIVREPPRPIAPPQLLGVGPTYLLIQLNANSIIGDGPIILKEVEYRMTSGSWTETHAVNAPTYKLWHLDPDTEYEIRVLLTRPGEGGTGLPGPPLITRTK
modifications: native N-linked glycans (no deglycosylation); glycans seen in the structure at N101, N140 and N211
notes: human PTPRK, N-terminal MAM, Ig and first FN domains, residues 28-385; numbers count on: UniProt Q15262-3; Cloned into pHLSec (AgeI/KpnI) in frame with the vector's N-terminal secretion signal; also called PTPRK-MIFN1; MIFN1
Consider B2, for which the “stoichiometry N” value is 2.

B3: PTPRK-MIFN1.W351G (domain or fragment, human, UniProt Q15262-3 28-385, looked up)
chain: QGQFSAGGCTFDDGPGACDYHQDLYDDFEWVHVSAQEPHYLPPEMPQGSYMIVDSSDHDPGEKARLQLPTMKENDTHCIDFSYLLYSQKGLNPGTLNILVRVNKGPLANPIWNVTGFTGRDWLRAELAVSTFWPNEYQVIFEAEVSGGRSGYIAIDDIQVLSYPCDKSPHFLRLGDVEVNAGQNATFQCIATGRDAVHNKLWLQRRNGEDIPVAQTKNINHRRFAASFRLQEVTKTDQDLYRCVTQSERGSGVSNFAQLIVREPPRPIAPPQLLGVGPTYLLIQLNANSIIGDGPIILKEVEYRMTSGSWTETHAVNAPTYKLGHLDPDTEYEIRVLLTRPGEGGTGLPGPPLITRTK
notes: human PTPRK, MAM-Ig-FN1 domains, residues 28-385, with W351G; numbers count on: UniProt Q15262-3; PDB 8A1F is the wild-type parent; also called W315G mutant form of PTPRK-MIFN1; source: expressed and purified (as PTPRK-MIFN1: human embryonic kidney-293F cells, nickel-nitrilotriacetic acid agarose, SEC)
On to B3, for which the binding result is “binds”.
